Series [1] has as its target Flag-tagged Nodal precursor (mouse). Briefly: non-reducing SDS-PAGE with immunoblot.
Series [2] concerns the molecule itself. The series can be described thus: non-reducing SDS-PAGE with immunoblot.

“Flag-tagged Nodal precursor (natural protein)” came in with a stoichiometry N in series [1] of 2.

B1: mature MycBMP4 (domain or fragment, mouse, UniProt P21275 293-408, looked up)
chain: SPKHHPQRSRKKNKNCRRHSLYVDFSDVGWNDWIVAPPGYQAFYCHGDCPFPLADHLNSTNHAIVQTLVNSVNSSIPKACCVPTELSAISMLYLDEYDKVVLKNYQEMVVEGCGCR
For B1, the “stoichiometry N” value in series [2] was determined as 2.

For the origin of these results see publication PMC2148113 (The Journal of Cell Biology, 1999).
